How the values were obtained:
BCDX2 complex [1] = molecular target: T1, BCDX2 complex (human, UniProt O15315;O43502;O75771;O43543 1-384;1-376;1-328;1-280); experiment: EMSA; efficient binding; EMSA: 20 mM Tris-HCl pH 7.5, 2 mM MgCl2, 2 mM ATP, 37 C, 20 nM DNA, glutaraldehyde fixation; stopped-flow: 25 mM Tris-HCl pH 7.5, 5 mM MgCl2, 50 mM KCl, 2 mM ATP, 0.5 mM EDTA, 10% glycerol, 37 C; BLI: 50 mM Tris-HCl pH 7.5, 2 mM ATP, 50 mM KCl, 5 mM MgCl2, 0.05% Tween 20, room temperature; settings: protein: recombinant; tags: Strep-tag and His-tag (XRCC2 N-terminal His); copies: 1;1;1;1; label: 5' FITC
T1 sequence 1: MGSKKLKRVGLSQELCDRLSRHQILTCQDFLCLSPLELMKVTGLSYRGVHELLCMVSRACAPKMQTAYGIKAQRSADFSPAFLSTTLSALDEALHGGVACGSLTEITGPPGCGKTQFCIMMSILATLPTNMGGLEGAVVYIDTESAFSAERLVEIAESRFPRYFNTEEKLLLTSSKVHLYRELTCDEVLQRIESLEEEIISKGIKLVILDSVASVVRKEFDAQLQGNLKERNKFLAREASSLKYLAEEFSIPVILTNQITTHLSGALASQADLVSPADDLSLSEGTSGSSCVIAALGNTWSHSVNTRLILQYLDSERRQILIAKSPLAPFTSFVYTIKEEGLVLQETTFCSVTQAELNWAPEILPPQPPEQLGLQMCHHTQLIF
T1 sequence 2: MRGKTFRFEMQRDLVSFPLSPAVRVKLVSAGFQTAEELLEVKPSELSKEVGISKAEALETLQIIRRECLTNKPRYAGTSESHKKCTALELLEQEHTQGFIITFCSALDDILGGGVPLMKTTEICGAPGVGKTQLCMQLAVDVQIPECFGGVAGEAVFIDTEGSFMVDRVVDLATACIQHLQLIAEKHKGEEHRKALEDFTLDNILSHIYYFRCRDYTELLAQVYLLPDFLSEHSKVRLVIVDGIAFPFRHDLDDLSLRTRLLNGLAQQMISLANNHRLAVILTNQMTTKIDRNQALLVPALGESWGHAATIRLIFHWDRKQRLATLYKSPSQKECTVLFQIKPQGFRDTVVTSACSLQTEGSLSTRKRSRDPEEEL
T1 sequence 3: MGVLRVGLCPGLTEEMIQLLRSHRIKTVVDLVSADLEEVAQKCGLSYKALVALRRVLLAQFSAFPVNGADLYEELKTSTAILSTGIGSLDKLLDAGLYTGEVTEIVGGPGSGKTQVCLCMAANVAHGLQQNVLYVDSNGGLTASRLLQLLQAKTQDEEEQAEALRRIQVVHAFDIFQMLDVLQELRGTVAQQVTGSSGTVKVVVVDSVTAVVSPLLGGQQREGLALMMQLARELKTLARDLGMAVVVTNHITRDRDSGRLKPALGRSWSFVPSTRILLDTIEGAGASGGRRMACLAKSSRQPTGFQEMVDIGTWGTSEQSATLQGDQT
T1 sequence 4: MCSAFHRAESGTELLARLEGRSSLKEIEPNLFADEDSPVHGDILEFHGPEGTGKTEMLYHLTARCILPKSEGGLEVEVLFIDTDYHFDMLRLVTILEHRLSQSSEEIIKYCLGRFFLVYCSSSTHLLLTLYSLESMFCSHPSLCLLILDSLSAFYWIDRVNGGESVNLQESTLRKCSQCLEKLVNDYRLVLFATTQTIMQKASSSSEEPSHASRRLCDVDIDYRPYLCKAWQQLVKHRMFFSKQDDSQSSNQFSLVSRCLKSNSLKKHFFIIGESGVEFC

BCDX2 complex [2] = molecular target: T1, BCDX2 complex; experiment: EMSA; 10 nt sufficient within reversed fork; EMSA: 20 mM Tris-HCl pH 7.5, 2 mM MgCl2, 2 mM ATP, 37 C, 20 nM DNA, glutaraldehyde fixation; stopped-flow: 25 mM Tris-HCl pH 7.5, 5 mM MgCl2, 50 mM KCl, 2 mM ATP, 0.5 mM EDTA, 10% glycerol, 37 C; BLI: 50 mM Tris-HCl pH 7.5, 2 mM ATP, 50 mM KCl, 5 mM MgCl2, 0.05% Tween 20, room temperature; settings: protein: recombinant; tags: Strep-tag and His-tag (XRCC2 N-terminal His); copies: 1;1;1;1; label: 3' Cy3 on strand 1; reversed fork of 4 strands, 3' ssDNA tail 10 nt
RAD51;BCDX2 complex [3] = molecular target: T2, RAD51;BCDX2 complex (human?;human, UniProt Q06609;O15315;O43502;O75771;O43543 1-339;1-384;1-376;1-328;1-280, |); experiment: BLI; BCDX2 facilitates RAD51 binding; EMSA: 20 mM Tris-HCl pH 7.5, 2 mM MgCl2, 2 mM ATP, 37 C, 20 nM DNA, glutaraldehyde fixation; stopped-flow: 25 mM Tris-HCl pH 7.5, 5 mM MgCl2, 50 mM KCl, 2 mM ATP, 0.5 mM EDTA, 10% glycerol, 37 C; BLI: 50 mM Tris-HCl pH 7.5, 2 mM ATP, 50 mM KCl, 5 mM MgCl2, 0.05% Tween 20, room temperature; settings: protein: recombinant;recombinant; tags: ;Strep-tag and His-tag (XRCC2 N-terminal His); copies: 1;1;1;1;1; label: 5' biotin
T2 sequence (Q06609 whole entry, one chain of several): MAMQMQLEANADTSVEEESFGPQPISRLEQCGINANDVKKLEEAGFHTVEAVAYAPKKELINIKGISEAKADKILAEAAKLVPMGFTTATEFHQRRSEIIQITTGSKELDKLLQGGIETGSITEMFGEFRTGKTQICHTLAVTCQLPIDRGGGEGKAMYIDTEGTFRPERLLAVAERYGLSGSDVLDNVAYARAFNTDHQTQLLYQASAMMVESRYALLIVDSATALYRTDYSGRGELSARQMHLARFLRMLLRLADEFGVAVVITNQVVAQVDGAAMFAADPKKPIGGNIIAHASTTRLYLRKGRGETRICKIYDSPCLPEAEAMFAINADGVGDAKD

RAD51;BCDX2 complex [4] = molecular target: T2, RAD51;BCDX2 complex; experiment: BLI; enhanced RAD51 loading; EMSA: 20 mM Tris-HCl pH 7.5, 2 mM MgCl2, 2 mM ATP, 37 C, 20 nM DNA, glutaraldehyde fixation; stopped-flow: 25 mM Tris-HCl pH 7.5, 5 mM MgCl2, 50 mM KCl, 2 mM ATP, 0.5 mM EDTA, 10% glycerol, 37 C; BLI: 50 mM Tris-HCl pH 7.5, 2 mM ATP, 50 mM KCl, 5 mM MgCl2, 0.05% Tween 20, room temperature; settings: protein: recombinant;recombinant; tags: ;Strep-tag and His-tag (XRCC2 N-terminal His); copies: 1;1;1;1;1; label: 3' Cy3 on strand 1; 5' biotin on strand 4; reversed fork of 4 strands, 3' ssDNA tail
RAD51;BCDX2(R159A) [5] = molecular target: T3, RAD51;BCDX2(R159A) (human?;human?, UniProt Q06609;O15315;O43502;O75771;O43543 1-339;1-384;1-376;1-328;1-280, |R159A); experiment: BLI; no RAD51 loading by mutant; EMSA: 20 mM Tris-HCl pH 7.5, 2 mM MgCl2, 2 mM ATP, 37 C, 20 nM DNA, glutaraldehyde fixation; stopped-flow: 25 mM Tris-HCl pH 7.5, 5 mM MgCl2, 50 mM KCl, 2 mM ATP, 0.5 mM EDTA, 10% glycerol, 37 C; BLI: 50 mM Tris-HCl pH 7.5, 2 mM ATP, 50 mM KCl, 5 mM MgCl2, 0.05% Tween 20, room temperature; settings: protein: recombinant;recombinant; tags: ;; copies: 1;1;1;1;1; label: 5' biotin
T3 sequence (Q06609 whole entry, stated change not applied, one chain of several): as the sequence (Q06609 whole entry, one chain of several) above

RAD51;BCD(R266A)X2 [6] = molecular target: T4, RAD51;BCD(R266A)X2 (human?;human?, UniProt Q06609;O15315;O43502;O75771;O43543 1-339;1-384;1-376;1-328;1-280, |R266A); experiment: as above; settings: protein: recombinant;recombinant; tags: ;; copies: 1;1;1;1;1; label: 5' biotin
T4 sequence (Q06609 whole entry, stated change not applied, one chain of several): as the sequence (Q06609 whole entry, one chain of several) above

RAD51;BCDX2(R159A) [7] = molecular target: T3, RAD51;BCDX2(R159A); experiment: BLI; RAD51 loading retained; EMSA: 20 mM Tris-HCl pH 7.5, 2 mM MgCl2, 2 mM ATP, 37 C, 20 nM DNA, glutaraldehyde fixation; stopped-flow: 25 mM Tris-HCl pH 7.5, 5 mM MgCl2, 50 mM KCl, 2 mM ATP, 0.5 mM EDTA, 10% glycerol, 37 C; BLI: 50 mM Tris-HCl pH 7.5, 2 mM ATP, 50 mM KCl, 5 mM MgCl2, 0.05% Tween 20, room temperature; settings: protein: recombinant;recombinant; tags: ;; copies: 1;1;1;1;1; label: 3' Cy3 on strand 1; reversed fork of 4 strands, 3' ssDNA tail
RAD51;BCD(R266A)X2 [8] = molecular target: T4, RAD51;BCD(R266A)X2; experiment: as above; settings: protein: recombinant;recombinant; tags: ;; copies: 1;1;1;1;1; label: 3' Cy3 on strand 1; reversed fork of 4 strands, 3' ssDNA tail

B1: ssDNA 20mer (ssDNA)
DNA: GAATGTGTGTCTCAATC
binding result (BCDX2 complex [1]): binds

B2: 10ntRVF (mixed)
DNA 1: GACGCTGCCGAATTCTACCAGTGCCTTGCTATTTTTTTTTT
DNA 2: ATCTGTTGTAATCGTCAAGCTTTATGCCGTT
DNA 3: GAACGGCATAAAGCTTGACGATTACAACAGATCATGGAGCTGTCTAGAGGATCCGACTATCGA
DNA 4: ATCGATAGTCGGATCCTCTAGACAGCTCCATGTAGCAAGGCACTGGTAGAATTCGGCAGCGT
binding result (BCDX2 complex [2]): binds

B3: biotin-dT15 (ssDNA)
DNA: TTTTTTTTTTTTTTT
binding result (RAD51;BCDX2 complex [3]): binds

B4: RVF25ssDNA (mixed)
DNA 1: GACGCTGCCGAATTCTACCAGTGCCTTGCTATTTTTTTTTTTTTTTTTTTTTTTTTTTTTT
DNA 2: ATCTGTTGTAATCGTCAAGCTTTATGCCGTT
DNA 3: GAACGGCATAAAGCTTGACGATTACAACAGATCATGGAGCTGTCTAGAGGATCCGACTATCGA
DNA 4: ATCGATAGTCGGATCCTCTAGACAGCTCCATGTAGCAAGGCACTGGTAGAATTCGGCAGCGT
binding result (RAD51;BCDX2 complex [4]): binds

B5: biotin-dT20 (ssDNA)
DNA: TTTTTTTTTTTTTTTTTTTT
binding result (RAD51;BCDX2(R159A) [5]): no binding
binding result (RAD51;BCD(R266A)X2 [6]): no binding

B6: 20ntRVF (mixed)
DNA 1: GACGCTGCCGAATTCTACCAGTGCCTTGCTATTTTTTTTTTTTTTTTTTTTTTTTT
DNA 2: ATCTGTTGTAATCGTCAAGCTTTATGCCGTT
DNA 3: GAACGGCATAAAGCTTGACGATTACAACAGATCATGGAGCTGTCTAGAGGATCCGACTATCGA
DNA 4: ATCGATAGTCGGATCCTCTAGACAGCTCCATGTAGCAAGGCACTGGTAGAATTCGGCAGCGT
binding result (RAD51;BCDX2(R159A) [7]): binds
binding result (RAD51;BCD(R266A)X2 [8]): binds
